Patent US7329737 (DYAX, dated 2008)
Residue numbers refer to the chain shown, from its start.

B1: M0132-H11 (Fab, V domains shown)
VH: EVQLLESGGGLVQPGGSLRLSCAASGFTFSHYQMHWVRQAPGKGLEWVSRIRSSGGATSYADSVKGRFTISRDNSKNTLYLQMNSLRAEDTAVYYCARGGGYSYYFDYWGQGTLVTVSS
VL: AQYELTQPPSASGTPGQRVTISCSGSSSNIGSNYVYWYQQLPGTAPKLLIYRNNQRPSGVPDRFSGSKSGTSASLAISGLRSEDEADYYCAAWDDSLSGHAVFGGGTQLTVLG
B2: M0115-G12 (Fab, V domains shown)
VH: EVQLLESGGGLVQPGGSLRLSCAASGFTFSPYFMEWVRQAPGKGLEWVSGISSSGGNTLYADSVKGRFTISRDNSKNTLYLQMNSLRAEDTAVYYCARDRFGNYYGSGSKLQHDAFDIWGQGTMVTVSS
VL: DIQMTQSPVTLSLSPGDRATLSCRASQSVSFNLAWYQHKPGQAPRLLMFDASNRATGIPDRFSGSGSGTDFTLTIKRLEPEDFAVYYCQQYGTSPFTFGPGTNVDVKR
B3: M0093-C02 (Fab, V domains shown)
VH: EVQLLESGGGLVQPGGSLRLSCAASGFTFSWYAMHWVRQAPGKGLEWVSWISPSGGQTKYADSVKGRFTISRDNSKNTLYLQMNSLRAEDTAVYYCARAKVLRYFDWLLGGDAFDIWGQGTMVTVSS
VL: DIQMTQSPGTLSLSPGDRATLSCRASQSVGSDYLAWYQQKPGQAPRLLIFAASTRATGIPDRFSGSGSATDFTLTISSLEPEDFAVYFCQQYASPPRTFGQGTKVEIKR
B4: M0098-H04 (Fab, V domains shown)
VH: EVQLLESGGGLVQPGGSLRLSCAASGFTFSHYVMSWVRQAPGKGLEWVSRIYPSGGQTYYADSVKGRFTISRDNSKNTLYLQMNSLRAEDTAVYYCARGAGWFDPWGQGTLVTVSS
VL: AQSELTQPPSASGSPGQSLTISCTGGRRDIGNYNYVSWYQQHPGKAPRLIIYDVRKRPSGVPDRFSGSKSGNVAFLTVSGLQTDDEADYYCGSYTGTSNVFGSGTTVTVLG
B5: M0131-G03 (Fab, V domains shown)
VH: EVQLLESGGGLVQPGGSLRLSCAASGFTFSHYVMQWVRQAPGKGLEWVSSIYPSGGSTRYADSVKGRFTISRDNSKNTLYLQMNSLRAEDTAMYYCARFNVGFDLWGRGTLVTVSS
VL: B4 VL
B6: M0121-A07 (Fab, V domains shown)
VH: EVQLLESGGGLVQPGGSLRLSCAASGFTFSHYLMYWVRQAPGKGLEWVSRIYPSGGATSYADSVKGRFTISRDNSKNTLYLQMNSLRAEDTAVYYCAKSGSWYSFDYWGQGTLVTVSS
VL: DIQMTQSPGTLSLSPGERATLSCRASQSVSSNYLAWYQQKPGQAPRLLMYGASYRATGIPDRFSGSGSGTDFTLTISSLQPEDFATYYCQQSYSTPWTFGQGTKVEIKR
B7: M0110-D11 (Fab, V domains shown)
VH: B6 VH with Y52G, A57W, S59K, K98R, S99V, S101V, S104G, F105M, Y107V, L113T
VL: AQSELTQPASVSGSPGQSITISCTGTSTDVGGYNYVSWYQKHPGKAPKLMIYDVSNRPSGVSNRFSGSKSGNTASLTISGLQAEDEADYYCSSYTNTITVVFGGGTKLTVLG
B8: M0132-D02 (Fab, V domains shown)
VH: EVQLLESGGGLVQPGGSLRLSCAASGFTFSHYPMDWVRQAPGKGLEWVSYIGPSGGSTRYADSVKGRFTISRDNSKNTLYLQMNSLRAEDTAVYYCARHVPPGTWGQGTLVTVSS
VL: AQSALTQPRSVSGSPGQSVTISCTGTSSDVNYVSWYQQHPGKAPKLMIYAVTKRPSGVPDRFSGSKSGNTASLTVSGLQAEDEADYYCSSYAGSNNLVFGGGTKLTVLG
B9: M0135-B05 (Fab, V domains shown)
VH: EVQLLESGGGLVQPGGSLRLSCAASGFTFSHYLMDWVRQAPGKGLEWVSVIYPSGGHTNYADSVKGRFTISRDNSKNTLYLQMNSLRAEDTAVYYCARVGVWYGMDVWGQGTTVTVSS
VL: DIQMTQSPSSLSASVGDRVTITCRASQSISTYLNWYQQKPGKAPNLLIYAASSLQSGVPSRFSGSGSGTDFTLTVSSLQPEDFGTYYCQQYNSFPFSFGQGTRLEINR
B10: M0095-A11 (Fab, V domains shown)
VH: B9 VH with H31P, L33M, D35G, V50S, Y52R, P53S, H57A, N59A, V93T
VL: DIQMTQSPATLSLSPGERATLSCRASQSVSSYLAWYQQKPGQAPRLLIYDASNRATGIPARFSGSGSGTDFTLTISSLEPEDFAVYYCQQRSNWPPYTFGQGTKLEIKR
B11: M0092-F08 (Fab, V domains shown)
VH: B9 VH with L33P, D35I, V50G, P53S, H57T, N59K
VL: DIQMTQSPATLSLSPGERATLSCGASQSVSSSYLAWYQQKPGLAPRLLIYDASSRATGIPDRFSGSGSGTDFTLTISSLQPEDFATYYCLHDYNFPFTFGPGTKVDIKR
B12: M0104-A12 (Fab, V domains shown)
VH: EVQLLESGGGLVQPGGSLRLSCAASGFTFSHYNMGWVRQAPGKGLEWVSRIGSSGGKTAYADSVKGRFTISRDNSKNTLYLQMNSLRAEDTAVYYCAKTNYDFWSGYLPNPNPYPLDYWGQGTLVTVSS
VL: DIQMTQSPSSLSASVGDRVTITCRASQSIGASLNWYQQKPQKAPKLLIYTASNLQSGVPSRFSGSGSGTDFTLTISSLLPEDFATYYCQQNYRGRTFGQGTKLEIKR
B13: M0098-E01 (Fab, V domains shown)
VH: EVQLLESGGGLVQPGGSLRLSCAASGFTFSMYGMTWVRQAPGKGLEWVSGISPSGGRTYYADSVKGRFTISRDNSKNTLYLQMNSLRAEDTAVYYCAKHRRDYVWWTYGMDVWGQGTTVTVSS
VL: DIQMTQSPATLSLSPGERATLSCRASQSVSGFLAWYQQKPGQAPRLLIYDASNRATGIPARFSGSGSGTDFTLTITRLEPEDFAVYYCQQYGDSSPITFGPGTRLEIKR
B14: M0136-F08 (Fab, V domains shown)
VH: EVQLLESGGGLVQPGGSLRLSCAASGFTFSHYKMGWVRQAPGKGLEWVSSIRPSGGATKYADSVKGRFTISRDNSKNTLYLQMNSLRAEDTAVYYCARVGIWDAFDIWGQGAMVTVSS
VL: DIQMTQSPGTLSLSPGERATLSCRASQSVSSSYLAWYQQKPGQAPRLLIYDASNRATGIPARFSGSGSGTDFTLTISSLEPEDFAVYYCQQWDTFGQGTKLEIKR
B15: M0110-H11 (Fab, V domains shown)
VH: B14 VH with G35E, S50R, A57V, A97T, V99G, I101L, A112T
VL: DIQMTQSPSSLSASVGDRVTITCRASQSISSYLNWYQQKPGKAPKLLIYAASSLQSGVPSRFSGSGSGTDFTLTISSLHPEDFATYYCQQTYSTLFTFGPGTKVHIKR
B16: M0132-D08 (Fab, V domains shown)
VH: EVQLLESGGGLVQPGGSLRLSCAASGFTFSHYLMYWVRQAPGKGLEWVSWIGPSGGHTMYADSVKGRFTISRDNSKNTLYLQMNSLRAEDTAVYYCARLQQGLDYWGQGTLVTVSS
VL: DIQMTQSPSTLSASVGDRVTITCRASQSISNWLAWYQQKPGKAPKLLIYMASTLESGVPSRFSGSGSGTEFTLTISSLQPADFATYYCQQYNSYSVTFGGGTKVEIKR
B17: M0126-F11 (Fab, V domains shown)
VH: B16 VH with L33W, Y35M, P53S, H57F, M59W, L99G, Q100N, Q101G, L103F, Y105S
VL: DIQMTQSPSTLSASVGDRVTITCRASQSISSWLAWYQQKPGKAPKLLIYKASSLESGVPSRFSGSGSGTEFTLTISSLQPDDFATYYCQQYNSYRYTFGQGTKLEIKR
B18: M0128-E07 (Fab, V domains shown)
VH: B4 VH with H31F, V33P, R50Y, Y52W, Q57A, Y59R, A100N, W102G, P105S
VL: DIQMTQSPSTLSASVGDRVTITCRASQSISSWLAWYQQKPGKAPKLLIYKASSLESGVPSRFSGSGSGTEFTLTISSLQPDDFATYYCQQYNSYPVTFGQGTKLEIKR
B19: M0135-C11 (Fab, V domains shown)
VH: EVQLLESGGGLVQPGGSLRLSCAASGFTFSNYSMQWVRQAPGKGLEWVSGIRPSGGSTRYADSVKGRFTISRDNSKNTLYLQMNSLRAEDTAVYYCAVSTGGYYYGMDVWGQGTTVTVSS
VL: DIQMTQSPSSVSASVGDRVTITCRASQGISSWLAWYQQKPGKAPKLLIYAASSLQSGVPSRFSGSGSGTDFTLTISSLQPEDFATYYCQQANSFPSLTFGGGTKVEIKR
B20: M0109-A11 (Fab, V domains shown)
VH: EVQLLESGGGLVQPGGSLRLSCAASGFTFSNYTMTWVRQAPGKGLEWVSVIYPSGGHTTYADSVKGRFTISRDNSKNTLYLQMNSLRAEDTAMYYCARGGRWFSLDYWGQGTLVTVSS
VL: B7 VL with T28S, V36L, K41Q, D53G, N63T, N96S, I98G, V100R, K107R
B21: M0104-B12 (Fab, V domains shown)
VH: EVQLLESGGGLVQPGGSLRLSCAASGFTFSIYAMIWVRQAPGKGLEWVSSIYSSGGPTQYADSVKGRFTISRDNSKNTLYLQMNSLRAEDTAVYYCARGRRTYYYDSSGYYKYAAFDIWGQGTMVTVSS
VL: DIQMTQSPSSLSASVGDRVTITCRASQAISNYLAWYQQQPGKVPKLLISAASTLQSGVPSRFSGSGSGTDFTLSISSLQPEDVATYYCQTYYSVPFTFGPGTKVDFKR
B22: M0138-C04 (Fab, V domains shown)
VH: EVQLLESGGGLVQPGGSLRLSCAASGFTFSHYHMQWVRQAPGKGLEWVSGIRSSGGVTGYSDSVKGRFTISRDNSKNTLYLQMNSLRAEDTAVYYCAREVTMVRGVYYYYYGMDVWGQGTTVTVSS
VL: AQYELTQPASVSGSPGQSITISCTGTSSDVGAYNYVSWYQHHPGKAPKLLIYDVSNRPSGISSRFSGSKSGNTASLTISGLQAEDEADYYCSSYTSSYTWVFGGGTKLTVLS

Target: T1, hK1 (human tissue kallikrein 1), recombinant (human, UniProt P06870 25-262)
T1 construct: Expressed in P. pastoris from KLK1 cDNA and purified; enzymatically active; also called KLK1; Recombinant (Pichia) Kallikrein
Experiment: SPR

Row | Binder | Kd [nM] | koff [s⁻¹] | kon [M⁻¹ s⁻¹]
1 | B1 | 4.5 | 0.00198 | 440000
2 | B2 | 5.73 | 0.000865 | 151000
3 | B3 | 5.72 | 0.00103 | 180000
4 | B4 | 5.53 | 0.00255 | 461000
5 | B5 | 7.49 | 0.00256 | 341000
6 | B6 | 4.75 | 0.00438 | 922000
7 | B7 | 6.38 | 0.00134 | 210000
8 | B8 | 4.22 | 0.00303 | 717000
9 | B9 | 5.9 | 0.000655 | 111000
10 | B10 | 7.22 | 0.00379 | 525000
11 | B11 | 7.27 | 0.00158 | 218000
12 | B12 | 3.66 | 0.00246 | 673000
13 | B13 | 6.8 | 0.00101 | 148000
14 | B14 | 5.97 | 0.00284 | 476000
15 | B15 | 6.17 | 0.00601 | 975000
16 | B16 | 4.73 | 0.000923 | 195000
17 | B17 | 5.05 | 0.00144 | 285000
18 | B18 | 30.4 | 0.0147 | 483000
19 | B19 | 6.85 | 0.00231 | 337000
20 | B20 | 7.45 | 0.0035 | 470000
21 | B21 | 7.41 | 0.00171 | 230000
22 | B22 | 4.26 | 0.000728 | 171000
